{
  "source": "patent US20080248043A1",
  "about": "(Amgen, published 2008)",
  "binders": {"B1": {"name": "1B5 (antibody, V domains shown)", "VH": "QVQLVESGGGVVQPGRSLRLSCAASGFTFSSYGMHWVRQAPGKGLEWVAVIWYDGSNKYYADSVKGRFTISRDNSKNTLYLQMNSLRAEDTAVYYCARGDFYWFDPWGQGTLVTVSS", "VL": "DIQMTQSPSSLSASVGDRVTITCRASQGIRSDLGWYQQRPGKTPKRLIYAASSLQSGVPSRFSGSGSGTEFTLTISSLQPEDFATYYCQQYNSYPLTFGGGTKVEIK"}, "B2": {"name": "5E4 (antibody, V domains shown)", "VH": "QVHLVQSGAEVKKPGASVKVSCKASGYTFTGYYVHWVRQAPGQGLEWMGWINPNSGGTNYAQKFQGRVTMTRDTSISTAYMELSRLRSDDTAVYFCAGGRYLDYWGQGTLVTVSS", "VL": "B1 VL with S31N, R39K, T43A, Q89L, L96I, G100Q, K103R, V104L"}, "B3": {"name": "3H12 (antibody, V domains shown)", "VH": "QVQLQESGPGLVKPSETLSLTCTVSDGSISSFYWSWIRQPPGKGLEWIGYIYYSGSTNYNPSLKSRVTISVDTSKNQFSLKLSSVTAADTAVYYCARDYDILTGYSNYYGMDVWGQGTTVTVSS", "VL": "B1 VL with S31N, R39K, T43A, Q89L, Y91H, L96F, G100P, V104L, E105D"}, "B4": {"name": "4A10 (antibody, V domains shown)", "VH": "not shown", "VL": "B1 VL with M4L"}, "B5": {"name": "6C2 (antibody, V domains shown)", "VH": "not shown", "VL": "B1 VL with K42N"}, "B6": {"name": "3F3 (antibody, V domains shown)", "VH": "not shown", "VL": "B1 VL with K42N"}, "B7": {"name": "4E2 (antibody, V domains shown)", "VH": "not shown", "VL": "B1 VL"}, "B8": {"name": "5D6 (antibody, V domains shown)", "VH": "QVQLVQSGAEVKKPGASVKVSCKASGYTFTSYGISWVRQAPGQGLEWMGWISAYNGNTNYAQKLQGRVTMTTDTSTNTAYMELRSLRSDDTAVYYCAVGRYLDYWGQGTLVTVSS", "VL": "B1 VL with G28D, S31N, R39K, T43A, Q89L"}, "B9": {"name": "5A5 (antibody, V domains shown)", "VH": "not shown", "VL": "B1 VL with M4L"}, "B10": {"name": "3C7 (antibody, V domains shown)", "VH": "QVQLVESGGGVVQPGTSLRLSCAASGFTFSSYGIHWVRQAPGKGLEWVAVIWYDGSNKFYADSVKGRFTISRDNSKNTLYLQMNSLRAEDTAVYYCARDPLGYCSSTSCSYFDYWGQGTLVTVSS", "VL": "DIQMTQSPSSVSASVGDRVTITCRASQGISNWLAWYQQKPGKAPKLLIYAASSLQSGVPSRFSGSGSGTDFTLTIRSLQPEDFATYYCQQANNFPLTFGGGTKVEIK"}, "B11": {"name": "6B1 (antibody, V domains shown)", "VH": "B10 VH with Y60H", "VL": "B10 VL with R76S"}},
  "note": "Residue numbers refer to the chain shown, from its start.",
  "data": [
    {"target": "S1-Ig (12-672) (SARS-CoV; human, UniProt P59594 12-672)", "experiment": "ELISA, coated S1-IgG 12-672", "units": {"Reactivity S1-IgG (ELISA OD)": "OD"}, "values": [
      {"binder": "B1", "Reactivity S1-IgG (ELISA OD)": 0.463},
      {"binder": "B2", "Reactivity S1-IgG (ELISA OD)": 0.735},
      {"binder": "B3", "Reactivity S1-IgG (ELISA OD)": 0.185},
      {"binder": "B4", "Reactivity S1-IgG (ELISA OD)": 1.01},
      {"binder": "B5", "Reactivity S1-IgG (ELISA OD)": 1},
      {"binder": "B6", "Reactivity S1-IgG (ELISA OD)": 1.07},
      {"binder": "B7", "Reactivity S1-IgG (ELISA OD)": 0.019},
      {"binder": "B8", "Reactivity S1-IgG (ELISA OD)": 0.747},
      {"binder": "B9", "Reactivity S1-IgG (ELISA OD)": 0.986},
      {"binder": "B10", "Reactivity S1-IgG (ELISA OD)": 1.09},
      {"binder": "B11", "Reactivity S1-IgG (ELISA OD)": 1.13}
    ]},
    {"target": "T1, S1-Ig (318-510) (SARS-CoV; human, UniProt P59594 318-510)", "experiment": "ELISA on coated S1-Ig fragment", "values": [
      {"binder": "B1", "binding result": "no binding"}
    ]},
    {"target": "S1-Ig (12-510) (SARS-CoV; human, UniProt P59594 12-510)", "experiment": "ELISA, coated S1-IgG 12-510", "units": {"Reactivity S1-IgG (ELISA OD)": "OD"}, "values": [
      {"binder": "B1", "Reactivity S1-IgG (ELISA OD)": 1.29},
      {"binder": "B2", "Reactivity S1-IgG (ELISA OD)": 1.2},
      {"binder": "B3", "Reactivity S1-IgG (ELISA OD)": 0.318},
      {"binder": "B4", "Reactivity S1-IgG (ELISA OD)": 1.52},
      {"binder": "B5", "Reactivity S1-IgG (ELISA OD)": 1.6},
      {"binder": "B6", "Reactivity S1-IgG (ELISA OD)": 1.35},
      {"binder": "B7", "Reactivity S1-IgG (ELISA OD)": 1.52},
      {"binder": "B8", "Reactivity S1-IgG (ELISA OD)": 1.31},
      {"binder": "B9", "Reactivity S1-IgG (ELISA OD)": 1.19},
      {"binder": "B10", "Reactivity S1-IgG (ELISA OD)": 1.42},
      {"binder": "B11", "Reactivity S1-IgG (ELISA OD)": 1.17}
    ]},
    {"target": "T1, S1-Ig (318-510)", "experiment": "ELISA, coated S1-IgG 318-510", "units": {"Reactivity S1-IgG (ELISA OD)": "OD"}, "values": [
      {"binder": "B1", "Reactivity S1-IgG (ELISA OD)": 0.191},
      {"binder": "B2", "Reactivity S1-IgG (ELISA OD)": 2.27},
      {"binder": "B3", "Reactivity S1-IgG (ELISA OD)": 1.3},
      {"binder": "B4", "Reactivity S1-IgG (ELISA OD)": 1.79},
      {"binder": "B5", "Reactivity S1-IgG (ELISA OD)": 1.85},
      {"binder": "B6", "Reactivity S1-IgG (ELISA OD)": 1.89},
      {"binder": "B7", "Reactivity S1-IgG (ELISA OD)": 1.84},
      {"binder": "B8", "Reactivity S1-IgG (ELISA OD)": 2.12},
      {"binder": "B9", "Reactivity S1-IgG (ELISA OD)": 2.31},
      {"binder": "B10", "Reactivity S1-IgG (ELISA OD)": 2.19},
      {"binder": "B11", "Reactivity S1-IgG (ELISA OD)": 2.09}
    ]},
    {"target": "S1-Ig (261-672) (SARS-CoV; human, UniProt P59594 261-672)", "experiment": "ELISA, coated S1-IgG 261-672", "units": {"Reactivity S1-IgG (ELISA OD)": "OD"}, "values": [
      {"binder": "B1", "Reactivity S1-IgG (ELISA OD)": 0.11},
      {"binder": "B2", "Reactivity S1-IgG (ELISA OD)": 0.298},
      {"binder": "B3", "Reactivity S1-IgG (ELISA OD)": 0.09},
      {"binder": "B4", "Reactivity S1-IgG (ELISA OD)": 0.567},
      {"binder": "B5", "Reactivity S1-IgG (ELISA OD)": 0.586},
      {"binder": "B6", "Reactivity S1-IgG (ELISA OD)": 0.325},
      {"binder": "B7", "Reactivity S1-IgG (ELISA OD)": 0.551},
      {"binder": "B8", "Reactivity S1-IgG (ELISA OD)": 0.355},
      {"binder": "B9", "Reactivity S1-IgG (ELISA OD)": 0.337},
      {"binder": "B10", "Reactivity S1-IgG (ELISA OD)": 0.357},
      {"binder": "B11", "Reactivity S1-IgG (ELISA OD)": 0.369}
    ]}
  ]
}
